These results are taken from patent publication US20240018513A1, “SYNTHETIC INTRONS FOR TARGETED GENE EXPRESSION” (FRED HUTCHINSON CANCER CENTER, priority 2020, published 2024).

Data set [1] concerns WT or SF3B1-mutant K562 cells. Kind of data set: K562 xenografts (intravenous), GCV or PBS, bioluminescence and survival. The format is in vivo, NOD-scid IL2Rgnull (NSG) mice. The text has this: FIGS. 4A-4I: Synthetic introns enable mutation-dependent cancer cell targeting in vivo. (4A) Schematic of xenograft experiments with K562 cells expressing Luciferase and HSV-TK interrupted by synMTERFD3i1-150. K562 cells were intravenously injected into sub-lethally irradiated (250 cGy) NOD-scid IL2rgnull (NSG) mice (2M cells/mouse). n=10 (WT) and 9 (SF3B1-mutant) mice per cohort. (4B) Quantification of tumor burden, estimated by whole-body bioluminescent signal. Each point represents a single mouse. (4C) Representative bioluminescence images from cohorts described in (4A). (4D) Survival of mice from cohort described in (4A). p computed with logrank test. Comparisons not illustrated on plot are not significant (p+/+ GCV vs. PBS=0.534; pK700E/+PBS vs.+/+PBS=0.823). The cause of death for the one GCV-treated animal engrafted with an SF3B1-mutant leukemia which died by experiment endpoint was unclear, as this animal had minimal leukemic burden by imaging or necropsy. (4E) Survival curves of NSG mice engrafted with SF3B1 WT (top) or SF3B1 K700E (bottom) MOLM-13 cells expressing Luciferase and HSV-TK interrupted by synMTERFD3i1-150 followed by treatment with either PBS or GCV. pK700E/+ PBS vs. pK700E/+GCV=0.011. n=10 mice/group. (4F) Representative bioluminescence images from cohorts described in (4E). (4G) Tumor volumes of mice engrafted with SF3B1 WT or SF3B1 K700E T47D cells expressing HSV-TK interrupted by synMTERFD3i1-150 followed by treatment with either PBS or GCV. T47D cells were engrafted subcutaneously. Data represented as mean±s.d. n=8 mice/group. (4H) Tumor volumes of mice engrafted with SF3B1 WT MEL285 cells (left) or SF3B1 R625G MEL202 cells (right) expressing HSV-TK interrupted by synthetic intron 6700 (synMTERFD3i1-150 with A>C at −7 nt; A>C at −19 nt) followed by treatment with either PBS or GCV. All cells were engrafted subcutaneously. Data represented as mean±s.d. n=10 mice/group. (4I) Representative gross images of the tumors from (4H) at day 27 post-implantation.
Having identified the key features governing mutation responsiveness, the next step was to test whether synthetic introns permitted mutation-dependent cancer cell killing in vivo. A focus was made on synMTERFD3i1-150 for these experiments, as it served as the parent synthetic intron from which most of the full library was derived. Luciferase-GFP constructs were introduced into WT or SF3B1-mutant K562 cells expressing HSV-TK interrupted by synMTERFD3i1-150, tail vein injections of these cells were performed into NOD-scid IL2Rgnull (NSG) mice. The mice were treated with PBS or GCV and monitored for leukemia burdens with live imaging (FIG. 4A). […]

In data set [2] the test system is MOLM-13 cells. Nature of the data set: MOLM-13 xenografts (intravenous), doxycycline-inducible SF3B1 WT or K700E, GCV or PBS. The class given is in vivo, NSG mice. Particulars: GCV-treated arm engrafted with SF3B1K700E-expressing MOLM-13 cells. The text has this: FIGS. 4A-4I: Synthetic introns enable mutation-dependent cancer cell targeting in vivo. (4A) Schematic of xenograft experiments with K562 cells expressing Luciferase and HSV-TK interrupted by synMTERFD3i1-150. K562 cells were intravenously injected into sub-lethally irradiated (250 cGy) NOD-scid IL2rgnull (NSG) mice (2M cells/mouse). n=10 (WT) and 9 (SF3B1-mutant) mice per cohort. (4B) Quantification of tumor burden, estimated by whole-body bioluminescent signal. Each point represents a single mouse. (4C) Representative bioluminescence images from cohorts described in (4A). (4D) Survival of mice from cohort described in (4A). p computed with logrank test. Comparisons not illustrated on plot are not significant (p+/+ GCV vs. PBS=0.534; pK700E/+PBS vs.+/+PBS=0.823). The cause of death for the one GCV-treated animal engrafted with an SF3B1-mutant leukemia which died by experiment endpoint was unclear, as this animal had minimal leukemic burden by imaging or necropsy. (4E) Survival curves of NSG mice engrafted with SF3B1 WT (top) or SF3B1 K700E (bottom) MOLM-13 cells expressing Luciferase and HSV-TK interrupted by synMTERFD3i1-150 followed by treatment with either PBS or GCV. pK700E/+ PBS vs. pK700E/+GCV=0.011. n=10 mice/group. […]
Next, the potential efficacy of using synthetic introns was tested in other cancer models. […] Leukemia burden and survival were monitored. […]

B1: intron_26: 150 nt MTERFD3 intron 1-derived synthetic intron, deletion 25to125; SEQ ID NO 58/66 (nucleic acid)
DNA 1: GTGAGTCGCCCCCTTCCTCTGCTCCGAGAGGGAAATGGGAATTAGGGTGGTGGCAGAGCCCAAAGAGGCCTTGTAGGCCATGGTAAGGCATTTCTATGTTTTATTTTACTTTGTCTTTATCCTAAAATGCCATTGGCAAGTTTATTGCAG
DNA 2: GTGAGTCGCCCCCTTCCTCTGCTCCGAGAGGGAAATGGGAATTAGGGTGGTGGCAGAGCCCAAAGAGGCCTTGTAGGCCATGGTAAGGCATTTCTATGTTTTATTTTACTTTGTCTTTATCCTAAAATGCCATTGGCAAGTTTATTGCAG
Consider B1, for which the figures for the “survival, p (logrank test)” value in data set [1] (+/+ (WT) GCV vs. PBS) and in data set [1] (GCV- vs. PBS-treated SF3B1-mutant leukemias) were 0.534 and 1.7e-4, respectively. Further, the “leukemic burden (whole-body bioluminescent signal)” value in data set [1] (GCV 80 mg/kg IP three times per week vs PBS) was “immediate and sustained suppression of SF3B1-mutant leukemic burden, with no effects on WT leukemias”. Further, the survival entry in data set [1] (GCV- vs PBS-treated SF3B1-mutant leukemias) is listed as “significantly increased survival”. The “survival and tumor burden” value in data set [2] was “significantly prolonged survival and reduced tumor burden”.
